The chains are these.
T1: Erh1 R23A (S. pombe, UniProt G2TRN4 1-104, R23A)
T1 construct: Erh1, S. pombe, residues 1-104, point mutant made with the MutanBEST kit; source: E. coli BL21 (Gold), purified (Ni-chelating resin, size-exclusion chromatography)
T1 sequence (looked up): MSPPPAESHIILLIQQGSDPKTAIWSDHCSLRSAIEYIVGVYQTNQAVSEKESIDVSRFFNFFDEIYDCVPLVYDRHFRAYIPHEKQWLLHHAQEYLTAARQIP

T2: Erh1 E85A (S. pombe, UniProt G2TRN4 1-104, E85A)
T2 construct: Erh1, S. pombe, residues 1-104, point mutant made with the MutanBEST kit; source: E. coli BL21 (Gold), purified (Ni-chelating resin, size-exclusion chromatography)
T2 sequence (looked up): T1 sequence (looked up) with A23R, E85A

T3: Erh1 D27A (S. pombe, UniProt G2TRN4 1-104, D27A)
T3 construct: Erh1, S. pombe, residues 1-104, point mutant made with the MutanBEST kit; source: E. coli BL21 (Gold), purified (Ni-chelating resin, size-exclusion chromatography)
T3 sequence (looked up): T1 sequence (looked up) with A23R, D27A

T4: Erh1 H9A (S. pombe, UniProt G2TRN4 1-104, H9A)
T4 construct: Erh1, S. pombe, residues 1-104, point mutant made with the MutanBEST kit; source: E. coli BL21 (Gold), purified (Ni-chelating resin, size-exclusion chromatography)
T4 sequence (looked up): T1 sequence (looked up) with H9A, A23R

T5: Erh1 D68A (S. pombe, UniProt G2TRN4 1-104, D68A)
T5 construct: Erh1, S. pombe, residues 1-104, point mutant made with the MutanBEST kit; source: E. coli BL21 (Gold), purified (Ni-chelating resin, size-exclusion chromatography)
T5 sequence (looked up): T1 sequence (looked up) with A23R, D68A

T6: GST-tagged Mmi1^1-122 amino-terminal fragment (S. pombe, UniProt O74958 1-122)
T6 construct: Vector Tev4T1 (modified pGEX-4T1 with a TEV site); source: E. coli BL21 (Gold), purified (glutathione sepharose, SEC)
T6 sequence (looked up): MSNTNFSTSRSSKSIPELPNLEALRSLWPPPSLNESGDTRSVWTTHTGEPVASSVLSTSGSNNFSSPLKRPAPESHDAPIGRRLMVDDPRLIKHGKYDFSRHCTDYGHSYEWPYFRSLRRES

B1: SUMO tagged Mmi1^95-122 (domain or fragment, S. pombe, UniProt O74958 95-122, looked up)
chain: GKYDFSRHCTDYGHSYEWPYFRSLRRES
notes: SUMO protein fused at the N-terminus following the His6 tag (modified pET28a); source: E. coli BL21 (Gold), purified (Ni-chelating resin, SEC); not shown: SUMO, N-terminal, kept
B2: SUMO-tagged Mmi1 95-122 (domain or fragment, S. pombe, UniProt O74958 95-122, looked up)
chain: GKYDFSRHCTDYGHSYEWPYFRSLRRES
notes: SUMO stands after the His6 tag at the N-terminus; also called Mmi1wt; source: E. coli BL21 (Gold), purified (Ni-chelating resin, size-exclusion chromatography); not shown: SUMO, N-terminal, kept
B3: Mmi1^95-122 peptide (SUMO tag removed) (peptide, UniProt O74958 95-122, looked up)
chain: GKYDFSRHCTDYGHSYEWPYFRSLRRES
notes: also called EID; EIM peptide; source: E. coli BL21 (Gold), purified as SUMO fusion, incubated with Erh1, SUMO tag removed by ULP1; not shown: His6, N-terminal, cleaved; SUMO, N-terminal, cleaved
B4: His-tagged Erh1 (residues 1-104) (natural protein, S. pombe, UniProt G2TRN4 1-104, looked up)
chain: T1 sequence (looked up) with A23R
notes: Erh1 (Enhancer of rudimentary homolog 1), S. pombe, residues 1-104; Cloned into p28a, a modified pET28a without a thrombin cleavage site; Homodimer by SEC and in the crystal; also called Enhancer of rudimentary homolog 1; source: E. coli BL21 (Gold), purified (Ni-chelating resin, SEC)
B5: Erh1: S. pombe ortholog of human ERH (protein)
chain: T1 sequence (looked up) with A23R
modifications: left off: His6, end not stated, state not stated
notes: S. pombe ortholog of human ERH
B6: GST-tagged Mmi1^1–122: purified GST-tagged Mmi1 amino-terminal fragment, residues 1–122 (protein, UniProt O74958 1-122, looked up, fragment)
chain: T6 sequence (looked up)
modifications: GST tag
B7: GST-tagged YTH domain of Mmi1: carboxy-terminal YTH domain of Mmi1, purified GST fusion (protein)
chain: SRYFIMLCDNETAIAHAKKTSIWAVKKDSSKRISDAYKKASVYFIFVAQQTYNALGYAQVVSDLNSTELPFWSDSSHAGGVRIKWIKTCNLFSAEISEIVSHMDHGSEARDGMEMMYDEGSRLCTLI
modifications: left off: GST, end not stated, kept
notes: carboxy-terminal YTH domain of Mmi1, purified GST fusion

Residue numbers refer to the chain shown, from its start.

Data set [1] has as its target B4. As to the kind of experiment: ITC; MicroCal iTC200, 293 K, 20 mM Tris-HCl pH 7.5, 150 mM NaCl; SUMO-tagged Mmi1 peptides titrated into Erh1 in the cell; single-site binding model. To be noted: both partners purified.
Another data set has as its target T1, Erh1 R23A. The data set can be described thus: ITC; SUMO-tagged Mmi1 peptides titrated into Erh1 in the sample cell; MicroCal iTC200, 293 K; 20 mM Tris-HCl pH 7.5, 150 mM NaCl; single-site binding model. The note with it: both partners purified. A general note: Isothermal titration calorimetry measures the heat released or taken up as one component is titrated into another.

The next data set has as its target T2, Erh1 E85A. The data set is described as above. To be noted: both partners purified.
The target in another data set is T3, Erh1 D27A. The data set is described as above. To be noted: both partners purified.
The target of another data set is T4, Erh1 H9A. The description is as above. To be noted: both partners purified.
Another data set deals with T5, Erh1 D68A. The data set is described as above. To be noted: both partners purified.
For data set [2], the target named is B4. As to the kind of experiment: SEC; analytical size-exclusion chromatography, calibrated Superdex75 10/300 GL column; Erh1 alone and Erh1 with Mmi1^95-122 after removal of the SUMO tag by ULP1. To be noted: both partners purified.
The target in data set [3] is T6, GST-tagged Mmi1^1-122 amino-terminal …. The data set can be described thus: pull-down; GST-Mmi1 fusion proteins incubated with Erh1, collected with glutathione-agarose resin, eluted, SDS-PAGE with Coomassie blue staining. The note with it: both partners purified.
Data set [4] concerns the molecule itself. As to the kind of experiment: SEC; analytical size-exclusion chromatography, calibrated Superdex75 10/300 GL column; Erh1 alone and Erh1 with Mmi1^95-122 after removal of the SUMO tag by ULP1. (In general: Size exclusion chromatography separates by hydrodynamic size, large species first.)
Data set [5] can be described thus: Analytical size-exclusion chromatography (oligomeric state). In kind it is physicochemical. On the procedure:
Next, we assessed the stoichiometry of Erh1 and Erh1-Mmi1^95–122 complexes by analytical size-exclusion chromatography (SEC) using a calibrated Superdex75 10/300 GL column (GE Healthcare). Erh1 eluted as a single peak at 11.41 mL, corresponding to an apparent molecular weight (MW) of 26 kDa. With a predicted molecular weight (MW) of ~13.2 kDa, this elution profile likely represents Erh1 homodimers (Fig. 1g). This is consistent with previous reports showing that human ERH protein exists as a dimer in solution[37].
We next purified SUMO-tagged Mmi1^95–122 and incubated it with Erh1, followed by removal of the SUMO tag by ULP1 enzyme.

Another data set concerns Erh1. As to the kind of experiment: GST pull-down of Erh1 with GST-tagged Mmi1 fragments, Coomassie. In kind it is binding, S. pombe. To be noted: GST-Mmi1 fusion incubated with Erh1, glutathione-agarose, SDS-PAGE. An excerpt: Fig. 1 Mmi1 interacts with Erh1 in a 2:2 stoichiometry. a Shown is a schematic representation of the domain architecture of Mmi1. The disorder score from DISOPRED3 Server[62] and the conservation score are shown below. The conservation score is generated by a Protein Residue Conservation Prediction Server[63] from the sequence alignment of Mmi1 orthologues from S. pombe, S. cryophilus, S. octosporus, and S. japonicus. b–d Interactions of GST tagged Mmi1 peptides (GST-Mmi1) with Erh1 visualized by Coomassie blue staining. The indicated GST-Mmi1 fusion proteins or GST alone were incubated with Erh1. The complexes were collected with glutathione-agarose resin and bound proteins were eluted and then subjected to SDS-PAGE. GST or GST-Mmi1 fusion proteins without Erh1 are shown as a negative control. Source data are provided as a Source Data file. e The raw ITC titration data of Erh1 with SUMO tagged Mmi1^95–122 and its fitting curve are shown. KD dissociation constant, DP differential power, N binding stoichiometry, ΔH binding enthalpy. f ITC fitting curves of Erh1 using SUMO tagged Mmi1^95–122 (magenta), Mmi1^106–122 (blue) and Mmi1^95–111 (green) are shown. g Size-exclusion analysis of Erh1 (magenta) and Erh1-Mmi1^95–122 (blue). Marker sizes are 62.9 KDa (Albumin), 46.7 KDa (Ovalbumin), 20.3 KDa (Chymotrypsinogen), 14.6 KDa (Ribonuclease A). Also shown are theoretical monomer sizes (kDa) of Erh1 protein and Mmi1^95–122 peptide TEXT PRINTED IN THE PICTURE: (e) Mmi1^95–122 - Erh1: KD (μM) 0.83±0.19; N (sites) 0.90±0.01; ΔH (kJ per mol) −106±3.02 | (f) Mmi1^95–122: Erh1 KD (μM): 0.83±0.19 | (f) Mmi1^106–122: Erh1 KD (μM): 9.94±1.19 | (f) Mmi1^95–111: Erh1 KD (μM): no binding | (g) Erh1: 13.2 kDa | (g) Mmi1^95–122: 3.5 kDa
A region of Erh1 (residues 1–104) was amplified by PCR from the S. pombe genome and cloned into a modified pET28a (Novagen) vector without a thrombin protease cleavage site (p28a). GST-Mmi1^YTH was sub-cloned from a Mmi1^YTH-p28a construct to a modified PGex-4T1 vector with a TEV protease cleavage site (Tev4T1). […]

A word on the Kd: it is a measure of binding affinity in units of concentration. A high value points to lower affinity. Broadly, the stoichiometry N is the number of molecules, sites or subunits per partner or assembly. B1: in data set [1], binding was put at a Kd of 830 ± 190 nM and the “stoichiometry N” value was 0.9.
In the case of B2, the dissociation constant Kd in the data set with Erh1 R23A amounted to 1480 ± 1070 nM; with Erh1 E85A, 2150 ± 291 nM; in the data set with Erh1 D27A, 2040 ± 366 nM; with Erh1 H9A it was 1530 ± 205 nM; in the data set with Erh1 D68A, 3960 ± 551 nM. Further, the “stoichiometry N” value in the data set with Erh1 R23A came to 1.28; in the data set with Erh1 E85A it was 1.08; with Erh1 D27A, 1.14; in the data set with Erh1 H9A it was 1.32; in the data set with Erh1 D68A, 1.34.
For B3, in [2], the “stoichiometry N” value was 1 Mmi1 per Erh1 (printed as 2:2).
As to B4, the binding result in data set [3] is listed as “binds”. In addition, the “stoichiometry N” value in data set [4] turned out to be 2.
As for B5, in data set [5] (Erh1 associated with Mmi1^95–122 after SUMO tag removal by ULP1, consistent with 2:2 stoichiometry), the “calculated molecular weight of complex with Erh1 by SEC” value is 33 kDa. Moreover, the “apparent molecular weight by SEC (Erh1 alone)” value in [5] (Superdex75 10/300 GL, calibrated, predicted monomer ~13.2 kDa, likely homodimer) is reported as 26 kDa.
On to B6, for which, in the data set with Erh1, the “interaction with Erh1 (GST pull-down)” value is “bound efficiently to Erh1”.
Turning to B7, the “interaction with Erh1 (GST pull-down)” value in the data set on Erh1 is “no interaction”.
